# Test results: the nanobody polyreactivity screen of Harvey et al. (2022)
# Assay: yeast display, Sf9 membrane polyspecificity reagent, FACS + sequencing; frameworks hold sequencing errors
# In short: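 Genes from sorted yeast were amplified by colony PCR, read by MiSeq 2 × 250 sequencing and filtered on CDR length. These cells carried a synthetic nanobody library in Saccharomyces cerevisiae BJ5465 and were sorted by FACS into low and high (top ~1%) gates on anti-HA and streptavidin fluorescence. Polyreactivity is labelled according to the gate of origin.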
row,Sequence,polyreactivity (PSR sort gate)
1,QVQLVESGGGLVQAGGSLRLSCAASGRTFARYAMGWYRQAPGKERELVASIRRGTSTNYADSVKGRFTISRDNAKNTVYLQMNSLKPEDTAVYYCAARVGTEGYHGDYWGQGTQVTVSS,high polyreactivity
2,QVQLVESGGGLVQAGGSLRLSCAASGSIFHYYTMGWYRQAPGKERELVAGISRSGGSTYYADSVKGRFTISRDNAKNTVYLQMNSLKPEDTAVYYCAAARYPYLYAYGYWGQGTQVTVSS,high polyreactivity
3,QVQLVESGGGLVQAGGSLRLSCAASGSIQYYAMGWYRQAPGKERELVAAIRFSGGRTYYADSVKGRFTISRDNAKNTVYLQMNSLKPEDTAVYYCAAYRSPRRSGAPSQGKFDYWGQGTQVTVSS,low polyreactivity
4,QVQLVESGGGLVQAGGSLRLSCAASGFIFRSYVMGWYRQAPGKERELVAAITRSGVRTYYADSVKGRFTISRDNAKNTVYLQMNSLKPEDTAVYYCNADFSATRYWPGNYWGQGTQVTVSS,high polyreactivity
5,QVQLEESGGGLLQAGGSLRLTCAASGFTFYYYAMGWYRLATGKERYLVAAISGGGGSTYYADSVKGRFTISRDNAKNTVYLPMNSMKPEDTAVYYCAAVGSWRYNYDYDYWGQGSQVTVSS,high polyreactivity
6,QVQLVESGGGLVQAGGSLRLSCAASGSIFRPNAMGWNRQAPGKERELVAAINTSDDSTYYADSVKGRFTISRDNAKNTVYLQMNSLKPEDSAVYYCAADPRTYWTHSYYWGQGTQVTVSS,low polyreactivity
7,HVQLVESGGGLVQAGGSLRLSCAASGRTLRRNAMGWYRQAPGKERELVAAINYSGANTYYADSVKGRFTISRDNAKNTVYLQMNSLKPEDTAVYYCAAASTSYRGISGGDYWGQGTQVTVSS,high polyreactivity
8,QVQLVESGGGLVQAGGSLRLSCAASGIIFKSYTMGWYRQAPGKERELVAAINSSGDRTYYADSVKGRFTISRDNAKNTVYLQMNSLKPEDTAVDYCAAAPVKKSRFRYDYWGQGTQVTVSS,high polyreactivity
9,QVQLVESGGGLVQAGGSLRLSCAASGSMFYYYAMGWYRQAPGKERELVAAISSAGITNYADSVKGRFTISRDNAKNTVYLQMNSLKPEDTAVSYCAAAVFDIYWFLGEAYYFQYDYWGQGTQVTVSS,high polyreactivity
10,QVQLVESGGGLVQAGGSLRLSCAASGSTSRIYGMGWYRQAPGTDRELVAAITRSGNTYADSVKGRFTISRDNANNTDYLQMNSLKPDDTAVYYCATAWRFTYFGYEYWGQGTQVTVSS,high polyreactivity
11,QVQLVESGGGLVQAGGSLRLSCAASGRIFIGNAMGWSRQAPGKERELVAAISSSGGSTYYADSVKGRFTISRDNAKNTVYLQMNSLKPEDTAVYYCAAETKNAPRFYPYSNEGYYYWGHGTQVTVSS,low polyreactivity
12,QVQRVESGGGLVQAGGSLRLSCAASGRTFSSYDLGWYRQAPGKERELVAAITSGGSTYYADSVKGRFTISRDNAKNTVYLQMNSLKPDDTAVYYCAADIYWWCSKDYDYWGQGTQVTVSS,high polyreactivity
13,QVQLVESGGGLVHAGGSLRLSCAAYGSIFYSYAMGWYRQAPGKERELVAAITSVGNTNYADSVKGRFTISRDNAKNTVYLQMNSLKPEDTAVYYYWGQGTQVTVSS,low polyreactivity
14,QVQLVESGGGLVQAGGSLRLSCAASGFVYYVMGWYRQAPGKERELVAAISKGGGRTYYADSVKGRFTISRDNAKNTVYLQMNSLKPEDTAVYYCNADGGLPKYDYWGQGTQVTVSS,high polyreactivity
15,QVQLVESGGGLVQAGGSLRLSCAASGRIFTRYAMGWYRQAPGKERELVAAITQRGGTTYYADSVKGRFTISRDNAKNTVYLQMNSLKPEDTAVDYCATRYRYYTERDYWGQGTQVTVSS,high polyreactivity
16,QVQLVESGGGLVQAGGSLRLSCAASGIIFYDYAMVWYRQAPGKERELVAAISWGGGSTSYADSVKGRFTISRDNAKNTVYLQMNSLKPEDTAVYYCNKVSLSKRRDYYWGQGTQVTVSS,high polyreactivity
17,QVQLVESGGGLVQAGGSLRLSCAASGLIFYKNAMAWYRQAPGKERELVAAIDWSSGSTYYADSVKGRFTISRDNAKNTVYLQMNSLIPEDTAVYYCAAEYVHHASGDFRTLYYYWGQGTQVTVSS,low polyreactivity
18,QVQLVESGGGLVQAGGSLRLSCAASGRTFSWYAMGWYRQAPGKERELVAAISSSGGSTYYADSVKGRFTISRDNAKNTVYLQMNSLKPEDTAVYYCAVRYYSSLSQRYYSWGQGTQVTVSS,high polyreactivity
19,QVQLVESGGVLVQAGGSLRLSCAASGRIFIGYAMGGNRQAPGKERELVAAISSSGGRTYYADSVKGRFTISRDNAKYTVYLQMNSLKPEDSAVYYCAKSFTRNTDYEYWGQGTQVTVSS,high polyreactivity
20,QVQLVESGGGLVQAGGSLRLSCAASGRTFVRNAMGWYRQAPGKVRELVAAISSIGDSTYYADSVKGRFTISRDNAKNTVYLQMNSLKPEDTAVYYSNARGYVYYRMGYWGQGTQETVSS,low polyreactivity
21,QVQLVESGGGLVQAGGRLRLSCAASGRIFAKNAMGWYRQAPGKERELVAAISGSGGSTYYADSVKGRFTISRDNAKNTVYLQMNSMKPDDTAVYYCAATRGPNYRNGYWGQGTQVTVSS,high polyreactivity
22,QVQLVESGGGLVQAGGSLRLSCAASGGTFNTNAMGWYRQAPGKERELVATIRGGVITTYADSVKGRFTISRDNAKNTVYLQMNSLKPEDTAVYYCAVDDLRGYDYWGQGTQVTVSS,low polyreactivity

row,Sequence,polyreactivity (PSR sort gate)
1,QVQLLESGGGLDQAGGSLRISCPASGSIFWSNAMGWYRQAPGKEREFVAALTWSGDNTYFADSVKGRFTISRENAKNTVDLQMNSLKPEDTAVYYCAAVFQNKAVGGVTSIYDCRGQGTQVTVSS,low polyreactivity
2,QVQLVESGGGLVQAGGSLRLSCAASGSIFNNYAMGWYRQAPGKEREFVAAISRSGGSTYYADSVKGRFTISRDNAKNTVYLQMNSLKPEDTAVYYCATDHGRYHGRYDYWGQGTQVTVSS,high polyreactivity
3,QVQLVESGGGLVQAGGSLRLSCAASGSIFISYAMGWYRQAPGKERELVAAISSGGSTNYADSVKGRFTISRDNAKNTVYLQMNSLKPEDTAVYYCAADGWLLSFTGDGWWFDYWGQGTQVTVSS,low polyreactivity
4,QDQLVESGGGLVQAGGCLRLSCAASGSIFIPYAMGSYRQAPGKERELVAAISLGDGNTYYADSVKGRFTISRDNAKYTVYLQMNSLKPEDTAVYYCNAVPRKFGDEYWGQGTQVTVSS,low polyreactivity
5,QVQLVESGGGLVQAGGTLRLSCAASGLIFGRNAMGWYRQAPGKEREFVATYADSVKGRFTISRYNAKNTVYLQMNSLKPEDTAVYYCATRFVWPSYGYYVQGRFDSWGQGTQVTVSS,low polyreactivity
6,QVQLVESGGGLVQAGGSLRLSCAASGFTFGGYAMGWYRQAPGKERELVAAINSIGGTTYYADSVKGRFTISRDNAKNTVYLQMNRLKPEDTAVYYCAAGFYGYARHTWYNYWGQGTQVTVSS,high polyreactivity
7,QVQLVESGGGLVQAGGSLRLSCAASGFTRVVSTMGWYRQAPGKERELVATISYTDGSTYYADAVKGRFTISRDNAKNTDYLQMTSLKPEDTADYYCNASYPSSSYSYHVDYWGQGTQVTVSS,low polyreactivity
8,QVQLVESGGGLVQAGGSLRLICAASGFTFWDYTMGWYIQAPGKERELVAAITRSGGRTYYADSVKGRFTISRDNENNTFYLQMNSLKTEDTAVYYCAAKIWSKDEKHDYWGQGTQVTVSS,high polyreactivity
9,QVQLVESGGGLVQAGGSLRLSCAASGFAFSHYAMGWYRQAPGKERELVAAISWGGGSTYYADSVKGRFTISRDNAKNTVYLQMNSLRPEDTAVYYCAASIWLRYHWGYDYWGQGTQVTVSS,high polyreactivity
10,QVQLVESGGGLVQAGGSLRLSCAASGRTFRANAMGWYRQAPGKERELVAAITSTGDRTYYADSVKGRFTISRDNAKNTVYLQMNSLKPEDTAVYYCAAENNRYGGYRKYDYWGQGTQVTVSS,low polyreactivity
11,QVQLVESGGGLVQAGGSLRLSCAASGSIFYNNVMGWYRQAPGKERELVAVISGGGSTNYADSVKGRFTISRDNAKNTDYLQMNSLKPEDTAVYYCAARGRYSYGDRYEYWGQGTQVTVSS,low polyreactivity
12,QVQHEESGGGLVQAGGRLRLSCAASGRTFFSNAMGWYRQAPGKERELVAAISNGDNTYYADSVKGRFTISRDNAKNTVYLQMNSLKPEDTAVYYCATAYPEWAVWGYDYWGQGTQVTVSS,low polyreactivity
13,QVQLVESGGGLVQAGGSLRLSCAPSGFIFVSNAMVWYRQEPGKERELFADITSRGDSTYYADSVKGRFTISRDNAKNTVYLQMNSLKPEDTAVYYCAVDQLYFPWSFSWYGYWGQGTQVTVSS,low polyreactivity
14,QVQLVESGGGLVQAGGSLRLSCAASGGTFHLNAMGWYRQAPRKEREFVASISWSGGSTYYADSVKGRFTISRDNAKNTVYLQMNCLKPEDTAVYYCARRKYYRQGGRTKGYDYWGQGTQVTVSS,high polyreactivity
15,QVQLVESGGALVQAGGSLRLSCAASGSTFLNYAMRGYRQATGKARELVAGINSGGSTNYADSVKGRFTISRDNAKNTVYLQMNSLKPEDTAVYYCAGDRVGNEYDYWGQGTQVTVSS,low polyreactivity
16,QVQLVESGGGLVQAGGSLRLSCAASGRIFPTYTMGWYRQAPGKERELVAAIRRGGGRTYYADSVKGRFTISRDNAKNTVYLQMNSLKPEDTAVYYCNKDVYGYSRTGPRGYDYWGQGTQVTVSS,high polyreactivity
17,QVQLVESVGGLVQAGGRLRLSCAASGSIFSIYGMGWYRQAPGKERELVAVISKSGTRTFYADSVKGRFTISRDNAKNTVYLQMNSLKPEDTAVYYCNARIFFRRNVTQVRMDYWGQGTQVTVSS,high polyreactivity
18,QVQLVESGGGLVQAGGSLRLSCAASGITVYLYAMGWYRQAPGKERELVAAISSSGGSTYYADSVKGRFTISRDNAKNTVYLQMNSLKPEDTAVYYCAAVYYTSVTIYDYWGQGTQVTVSS,high polyreactivity
19,QVQVVDSGGGLVQAGGSLRLSCAASGRTFIGNAMGWYRQAPGKERELVATITTSAGTTYYADSVKGRITISRDNAKITVYVQMLSLKPEDTAVYYCAADASQSEGDYWGQGTQVTVAS,high polyreactivity
20,QVQLQESGGGLEQAGGSLRLSCAASGYISDIGTMGWYRQAPGKEREFVATLVVGSTTNYADSVKGRFTISRDNAKNTVYLQPESGRYRGVLLRGWLLAVGKFTYWGQGTQETVSS,low polyreactivity
21,QVQLVESGGGLVQAGGSIRLSCAASGRIFYTYAMGWYRPAPGKERELVAAISSRTGSTYYADSVKGRFTISRDNAKNTVYLQMNSLKPEDTAVYYCNAYRLRYGYDYWGQGTQVTVSS,high polyreactivity
